Ends that are not written are not given here.
Experiments:
human PTHRs [1] = target: T1, human PTHRs (Homo sapiens, UniProt Q03431); parameters: host or cells: LLC-PK1, COS-7 or HEK 293 cells; conditions: human PTHRs in LLC-PK1, COS-7 or HEK 293 cells; cited from earlier work
T1 sequence (Q03431 27-593): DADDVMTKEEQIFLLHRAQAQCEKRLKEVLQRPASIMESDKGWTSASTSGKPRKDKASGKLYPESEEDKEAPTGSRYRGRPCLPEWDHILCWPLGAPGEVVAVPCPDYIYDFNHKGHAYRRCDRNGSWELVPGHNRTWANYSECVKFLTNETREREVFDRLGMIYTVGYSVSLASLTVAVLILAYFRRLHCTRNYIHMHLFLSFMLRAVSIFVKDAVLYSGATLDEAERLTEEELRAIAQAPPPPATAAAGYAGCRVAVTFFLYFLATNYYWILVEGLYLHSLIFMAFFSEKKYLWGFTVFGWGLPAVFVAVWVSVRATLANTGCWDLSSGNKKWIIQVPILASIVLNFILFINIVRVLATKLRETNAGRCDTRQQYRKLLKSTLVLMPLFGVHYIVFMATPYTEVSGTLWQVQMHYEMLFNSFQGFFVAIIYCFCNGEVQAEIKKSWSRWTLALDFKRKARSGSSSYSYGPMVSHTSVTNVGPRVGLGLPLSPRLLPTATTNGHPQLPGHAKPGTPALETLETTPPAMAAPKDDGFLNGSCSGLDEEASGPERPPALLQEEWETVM

human PTHRs [2] = target: T1, human PTHRs; parameters: host or cells: LLC-PK1, COS-7 or HEK 293 cells; conditions: human PTHRs in LLC-PK1, COS-7 or HEK 293 cells; cited from earlier work; remark: listed apart in the source
human PTHRs [3] = target: T1, human PTHRs; assay: PLC activation in COS-7 cells expressing human PTHRs; type: cell-based; conditions: up to 1000 nM
Protocol: (§1) All cells were maintained under 5% CO2 in air in Dulbecco's modified […] containing 7% fetal bovine serum (FBS) and 1% penicillin/streptomycin (GIBCO-BRL, Grand Island, N.Y.). Cells were seeded into 24-well plates two days before assay at a suitable cell density (approximately 2-2.5×10^5 cells/well). DNA transfections in COS/HEK cells were performed 24 hr after plating and inositol radiolabel was added 24 hr thereafter (see below). Cell transfections were performed as previously described (Gardella, T. J., et al., Endocrinology 132(5):2024-2030 (1993)).
(§2) PLC was activated by PTH agonists in the presence of 30 mM LiCl at 37° C. for 30 min after 16 hr of labeling with [^3H]myo-inositol (3uCi/ml) in serum-free medium containing 0.1% bovine serum albumin. The reactions were stopped by rapid aspiration and addition of cold 5% TCA. Water-soluble radiolabeled inositol trisphosphate (IP3) was isolated after ether extraction by ion-exchange chromatography (Guo, J., et al., Endocrinology 136(9):3884-3891 (1995)). In experiments involving HEK 293 cells, cells previously transfected with human PTHR cDNA (in the pcDNA1 expression vector HKRK) using Lipofectamine (Gibco BRL) were labeled with [^3H]myo-inositol and assayed as described above, except that total water-soluble [^3H]inositol polyphosphates were collected as a single fraction from the ion-exchange columns.

rat PTHRs = target: T2, rat PTHRs (Rattus norvegicus, UniProt P25961); assay: PLC activation in COS-7 cells expressing rat PTHRs; type: cell-based; conditions: up to 1000 nM
T2 construct: expressed in transfected cells; host or cells: COS-7 cells
T2 sequence (P25961 27-591): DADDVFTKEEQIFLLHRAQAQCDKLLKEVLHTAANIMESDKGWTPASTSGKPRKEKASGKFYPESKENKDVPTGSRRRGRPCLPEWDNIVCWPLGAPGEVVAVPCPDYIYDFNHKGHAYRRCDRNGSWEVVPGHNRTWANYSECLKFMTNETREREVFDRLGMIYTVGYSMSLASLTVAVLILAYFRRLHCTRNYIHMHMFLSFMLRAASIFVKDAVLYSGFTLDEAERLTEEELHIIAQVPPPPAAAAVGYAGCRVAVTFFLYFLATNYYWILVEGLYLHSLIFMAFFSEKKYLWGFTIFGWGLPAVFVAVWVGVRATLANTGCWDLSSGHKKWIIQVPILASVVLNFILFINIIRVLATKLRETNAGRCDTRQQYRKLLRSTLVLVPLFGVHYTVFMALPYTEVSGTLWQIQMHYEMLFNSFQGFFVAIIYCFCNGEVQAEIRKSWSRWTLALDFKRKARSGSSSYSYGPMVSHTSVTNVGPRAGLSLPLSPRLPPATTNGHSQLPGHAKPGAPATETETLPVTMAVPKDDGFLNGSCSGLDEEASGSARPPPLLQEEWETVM
Protocol: as §1, §2

hPTH-1 receptors = target: T3, hPTH-1 receptors (Homo sapiens, UniProt Q03431); assay: phospholipase C (PLC) activity in HKRK-B7 cells; type: cell-based; parameters: expressed in transfected cells; conditions: about 1 million hPTH-1 receptors per cell, 1000 nM (FIG. 4)
T3 sequence (Q03431 27-593): T1 sequence (Q03431 27-593)
Excerpt: The following cell lines were used in these studies. HKRK C53 subclones of LLC-PKI porcine renal epithelial cells which stably express human PTH-1 receptors (150,000 receptors/cell). SaOS-2 cells are transformed human osteosarcoma cells which express relatively few (10,000-20,000 per cell) human PTH-1 receptors. HPR2-7 cells are subclones of LLC-PK1 which express approximately 250,000 recombinant human PTH-2 receptors per cell. HKRK-B7 cells are subclones of LLC-PK which stably express approximately 1 million hPTH-1 receptors per cell. HPR2-22 cells are subclones of LLC-PK1 which express 1.5 million recombinant hPTH-2 receptors per cell. The HPR2-27 and HPR2-22 cell lines were created in the same fashion as the HKRK cells but employing instead type 2 PTH receptor cDNA using the transfection technique of (Bringhurst, F. R., et al., Endocrinology 132(5):2090-2098 (1993); Guo, J., et al., Endocrinology 136(9):3884-3891 (1995)).
as §2

activation of PLC (human PTHRs [3]) | activation of PLC (rat PTHRs) | activation of PLC (hPTH-1 receptors) | Substance | potency in activating AC compared with hPTH-(1-34) (human PTHRs [1]) | potency in activating PLC compared with hPTH-(1-34) (human PTHRs [2])
– | – | – | hPTH-(1-31): C-truncated human PTH peptide, residues 1-31 | as potent as hPTH-(1-34) | as potent as hPTH-(1-34)
did not activate PLC | did not activate PLC | did not activate PLC | hPTH-(3-34): N-truncated human PTH peptide, residues 3-34 (SEIQLMHNLGKHLNSMERVEWLRKKLQDVHNF-NH2; UniProt P01270 34-65, looked up, fragment) | – | –
